Reference: patent US20160046707A1 (EISAI R AND D MANAGEMENT, published 2016)
Numbering of substitutions follows the chain as printed.

B1: humanized anti-human CCL20 antibody 36LK3/42HKK1 (antibody, human IgG1, kappa, V domains shown)
VH: QVQLVQSGAEVKKPGASVKVSCKASGYTFTSYWMHWVRQAPGQGLEWMGLIDPSDKYTNYNQKFKGRVTMTRDTSTSTVYMELSSLRSEDTAVYYCARGNYGVDYGMDYWGQGTLVTVSS
VL: DIQMTQSPSSLSASVGDRVTITCGASENIYGALNWYQRKPGKAPKLLIYGATNLADGVPSRFSGSGSGRDYTLTISSLQPEDFATYYCQNVLITPYTFGQGTKLEIKR
B2: humanized anti-human CCL20 antibody 36LC3/36HKK3 (antibody, human IgG1, kappa, V domains shown)
VH: QVQLVQSGAEVKKPGASVKVSCKASGYTFTNYWMHWVRQAPGQGLEWMGVIDPSDSYTTYNQKFKGKATLTVDTSTSTAYMELSSLRSEDTAVYYCTRGNYGVDYAMDYWGQGTLVTVSS
VL: B1 VL with G24R, R38Q, D70Q, T72S, Q100G
B3: humanized anti-human CCL20 antibody 36LK3/42HKK3 (antibody, human IgG1, kappa, V domains shown)
VH: B2 VH with N31S, V50L, S56K, T59N, A106G
VL: B1 VL
B4: humanized anti-human CCL20 antibody 36LK3/42HKK2 (antibody, human IgG1, kappa, V domains shown)
VH: B1 VH with M70L, R72V, A97T
VL: B1 VL
B5: 36LC3/36HC3 (antibody, human IgG1, kappa, V domains shown)
VH: B2 VH with R38K, M48I, L70M, V72R, A79V, L115S
VL: B1 VL with G24R, R38Q, D70Q, T72S, Q100G
B6: humanized anti-human CCL20 antibody 36LK3/36HC3 (antibody, human IgG1, kappa, V domains shown)
VH: B2 VH with R38K, M48I, L70M, V72R, A79V, L115S
VL: B1 VL
B7: humanized anti-human CCL20 antibody 36LK3/36HKK3 (antibody, human IgG1, kappa, V domains shown)
VH: B2 VH
VL: B1 VL

Each binder was assayed against T1, recombinant human CCL20 (R&D Systems, #360-MP-025/CF) (human, UniProt P78556 27-96) (assay: cell-based or functional assay).
T1 sequence (P78556 other isoform, or with tags, fused parts or gaps limits assumed): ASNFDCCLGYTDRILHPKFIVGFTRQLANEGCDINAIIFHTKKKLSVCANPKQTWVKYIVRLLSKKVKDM

Row | Binder | IC50 of chemotaxis inhibition [nM] | IC50 of chemotaxis inhibition (block of heavy chains 36HKK1 to 36HKK3) [nM] | IC50 of chemotaxis inhibition (block of heavy chains 36HKK3, 36HC2, 36HC3) [nM]
1 | B1 | 1.36 | – | –
2 | B2 | 1.26 | – | –
3 | B3 | 1.47 | – | –
4 | B4 | 1.66 | – | –
5 | B5 | 1.33 | – | –
6 | B6 | 1.13 | – | –
7 | B7 | – | 1.31 | 1.21

Biological target: T1, recombinant human CCL20 (R&D Systems, …)
Experiment: cell-based or functional assay
Remark: another data set of the same source

Row | Binder | IC90 of chemotaxis inhibition [nM]
8 | B1 | 4.86
9 | B2 | 4.33
10 | B3 | 5.65
11 | B4 | 6.54
12 | B5 | 6.34
13 | B6 | 4.6

Biological target: T1, recombinant human CCL20 (R&D Systems, …)
Experiment: cell-based or functional assay
Remark: another data set of the same source

Row | Binder | IC95 of chemotaxis inhibition [nM]
14 | B1 | 9.02
15 | B2 | 9.75
16 | B3 | 10.8
17 | B4 | 15.3
18 | B6 | 8.38
